The results in this text go back to the RNAGym collection of RNA variant scans (doi:10.1021/acssynbio.7b00057).

First the molecules themselves.
B1: Pistol ribozyme (parent)
chain: GGGUCGUUGUUCCAUAAUCGCGUGGAUAUGGCACGCAAGUUUCUACCGGGCACCGUAAAUGUCCGACUGGAGCCGUUCGGGCGGCUAUAAACAGACCUCAGGCCCGAAGCGUGGCGGCACCUGCCGCCGGUGGUAAAAAAGAUCGGAAGAGCACACGUCU

The variants in this series derive from B1. The experiment in a line: aptazyme ON/OFF ratio, guanine; higher = stronger switching; co-transcriptional cleavage with and without guanine.
As to U7C U8A G9C U10G U11A C12U C13A, the “aptazyme ON/OFF ratio” value was found to be 1.16. Turning to U7C U8A G9C U10G U11C C12G C13A, the “aptazyme ON/OFF ratio” value amounted to 1.25. Next, U7C U8A G9C U10G U11C C12G C13G: 1.23; U7C U8A G9C U10G U11C C12G C13U: 1.19; U7C U8A G9C U10C U11A C12G: 1.03. Next, U7C U8A G9C U10C U11A C12A: 1.03; U7C U8A G9C U10C U11A C12U: 1.06. On to U7C U8A G9C U10G U11A C12A, for which the “aptazyme ON/OFF ratio” value amounted to 1.38. The result for U7C U8A G9C U10G U11A C12U reads 1.08; that for U7C U8A G9C U10G U11A C12G, 1.32; that for U7C U8A G9C U10G, 1.97. Take U7C U8A G9C U11A C12A C13G: the “aptazyme ON/OFF ratio” value worked out at 1.08.

Regarding U7C U8A G9C U11A C12A C13U, the “aptazyme ON/OFF ratio” value is 1.15.

For U7C U8A G9C U11A C12A C13A, the “aptazyme ON/OFF ratio” value was 1.11. The result for U7C U8A G9C U10C U11C C12A C13A reads 1.04. Next, U7C U8A G9C U10C U11C C12A C13G: 1; U7C U8A G9C U10C U11C C12A C13U: 1.05; U7C U8A G9C U10C U11A C13A: 1.09. The result for U7C U8A G9C U10C U11A C13G reads 1.2. U7C U8A G9C U10C U11A C13U: the “aptazyme ON/OFF ratio” value came out at 1.13. For U7C U8A G9C U10G C12A C13A, the “aptazyme ON/OFF ratio” value was determined as 1.23. Next, U7C U8A G9C U10G C12A C13G: 1.09; U7C U8A G9C U10G C12A C13U: 1.13. The result for U7C U8A G9C U10G U11G C12A reads 1.23; that for U7C U8A G9C U10G U11G C12G, 1.13. As to U7C U8A G9C U10G U11G C12U, the “aptazyme ON/OFF ratio” value amounted to 1.12.

Turning to U7C U8A G9C U10G U11G C12G C13G, the “aptazyme ON/OFF ratio” value is 1.13. The result for U7C U8A G9C U10G U11G C12G C13A reads 1.11. Next, U7C U8A G9C U10G U11G C12G C13U: 1.09; U7C U8A G9C U10G U11G C12U C13G: 1.1; U7C U8A G9C U10G U11G C12U C13A: 1.12. Next, U7C U8A G9C U10G U11G C12U C13U: 1.09; U7C U8A G9C U10G C12U C13A: 1.18; U7C U8A G9C U10G C12U C13U: 1.26. As to U7C U8A G9C U10G C12U C13G, the “aptazyme ON/OFF ratio” value was found to be 1.17. The result for U7C U8A G9C U10C U11A C12A C13U reads 1.04; that for U7C U8A G9C U10C U11A C12A C13G, 1.11; that for U7C U8A G9C U10C U11A C12A C13A, 1.07. With U7C U8A G9C U10C C12G, the “aptazyme ON/OFF ratio” value came to 1.03.

Regarding U7C U8A G9C U10C C12U, the “aptazyme ON/OFF ratio” value came to 1.15. Next, U7C U8A G9C U10C U11C C12G: 1.04; U7C U8A G9C U10C U11C C12A: 1.06.

As for U7C U8A G9C U10C U11C C12U, the “aptazyme ON/OFF ratio” value was 1.02.

For U7C U8A G9C U10C U11C C13A, the “aptazyme ON/OFF ratio” value came out at 1.01.

As to U7C U8A G9C U10C U11C C13G, the “aptazyme ON/OFF ratio” value turned out to be 1. For the variant U7C U8A G9C U10C U11C C13U, the “aptazyme ON/OFF ratio” value was determined as 1.03.

Take U7C U8A G9C U10G C12A: the “aptazyme ON/OFF ratio” value amounted to 1.17.

For U7C U8A G9C U10G C12G, the “aptazyme ON/OFF ratio” value is 1.28. Next, U7C U8A G9C U10G C12U: 1.36. Next, U7C U8A G9C U11C C13U: 1.05. The result for U7C U8A G9C U11C C13A reads 1.14. For the variant U7C U8A G9C U11C C13G, the “aptazyme ON/OFF ratio” value amounted to 1.04. For U7C U8A G9C U10C U11C C12G C13A, the “aptazyme ON/OFF ratio” value was determined as 1.04.

For the variant U7C U8A G9C U10C U11C C12G C13U, the “aptazyme ON/OFF ratio” value came out at 1.04. Take U7C U8A G9C U10C U11C C12G C13G: the “aptazyme ON/OFF ratio” value is 1.04. The result for U7C U8A G9C U11G C12A C13U reads 1.15; that for U7C U8A G9C U11G C12A C13A, 1.13; that for U7C U8A G9C U11G C12A C13G, 1.15. Next, U7C U8A G9C U10C C12A C13A: 1.05; U7C U8A G9C U10C C12A C13G: 1.07. U7C U8A G9C U10C C12A C13U: the “aptazyme ON/OFF ratio” value was 1.06. As for U7C U8A G9C U10G U11A C13U, the “aptazyme ON/OFF ratio” value amounted to 1.04. On to U7C U8A G9C U10G U11A C13A, for which the “aptazyme ON/OFF ratio” value turned out to be 1.08. The result for U7C U8A G9C U10G U11A C13G reads 1.11. The result for U7C U8A G9C U10G U11C C12A reads 1.29; that for U7C U8A G9C U10G U11C C12G, 1.18. Regarding U7C U8A G9C U10G U11C C12U, the “aptazyme ON/OFF ratio” value worked out at 1.24. As for U7C U8A G9C U10C U11C C12U C13G, the “aptazyme ON/OFF ratio” value was found to be 1.03. The result for U7C U8A G9C U10C U11C C12U C13U reads 1.02. In the case of U7C U8A G9C U10C U11C C12U C13A, the “aptazyme ON/OFF ratio” value was found to be 1.03.

With U7C U8A G9C U10C U11G C12U C13G, the “aptazyme ON/OFF ratio” value amounted to 1.11. On to U7C U8A G9C U10C U11G C12U C13A, for which the “aptazyme ON/OFF ratio” value amounted to 1.05. For U7C U8A G9C U10C U11G C12U C13U, the “aptazyme ON/OFF ratio” value worked out at 1.1. Next, U7C U8A G9C U10C U11G C13A: 1.1; U7C U8A G9C U10C U11G C13U: 1.16. The result for U7C U8A G9C U10C U11G C13G reads 1.06.

On to U7C U8A G9C U10G U11C C13A, for which the “aptazyme ON/OFF ratio” value was 1.39. As to U7C U8A G9C U10G U11C C13U, the “aptazyme ON/OFF ratio” value worked out at 1.09.

On to U7C U8A G9C U10G U11C C13G, for which the “aptazyme ON/OFF ratio” value stood at 1.05. For the variant U7C U8A G9C U11G C12A, the “aptazyme ON/OFF ratio” value worked out at 1.06. Next, U7C U8A G9C U11G C12G: 1.2; U7C U8A G9C U10C C13G: 1.05; U7C U8A G9C U10C C13U: 1.23. Turning to U7C U8A G9C U10C C13A, the “aptazyme ON/OFF ratio” value worked out at 1.03.
